Publication PMC3671127

Legend:
[1] = molecular target: HIV-1 integrase A128T (LEDGIN-resistant), fluorescently labelled (IN_(A128T)-mTFP1 and IN_(A128T)-mVenus) in virions (HIV-1); assay: FRET or BRET; single virus FRET by acceptor photobleaching (TIRF microscopy) on fixed virions with IN-mTFP1 donor and IN-mVenus acceptor; FRET ratio = FD/FDA; virions produced in the presence of CX05045 (5-fold EC50)
[2] = molecular target: HIV-1 integrase A128T (LEDGIN-resistant), fluorescently labelled (IN_(A128T)-mTFP1 and IN_(A128T)-mVenus) in virions (HIV-1); assay: FRET or BRET; single virus FRET by acceptor photobleaching (TIRF microscopy) on fixed virions with IN-mTFP1 donor and IN-mVenus acceptor; FRET ratio = FD/FDA, unity means no FRET; virions produced in the presence of DMSO
[3] = molecular target: HIV-1 integrase, wild type, fluorescently labelled (IN-mTFP1 and IN-mVenus) in virions (HIV-1) (UniProt P12497); assay: FRET or BRET; single virus FRET by acceptor photobleaching (TIRF microscopy) on fixed virions with IN-mTFP1 donor and IN-mVenus acceptor; FRET ratio = FD/FDA; virions produced in the presence of CX05045 (5-fold EC50)
[4] = molecular target: HIV-1 integrase, wild type, fluorescently labelled (IN-mTFP1 and IN-mVenus) in virions (HIV-1) (UniProt P12497); assay: FRET or BRET; single virus FRET by acceptor photobleaching (TIRF microscopy) on fixed virions with IN-mTFP1 donor and IN-mVenus acceptor; FRET ratio = FD/FDA, unity means no FRET; virions produced in the presence of DMSO
[5] = molecular target: HIV-1 integrase, wild type, fluorescently labelled (IN-mTFP1 and IN-mVenus) in virions (HIV-1) (UniProt P12497); assay: FRET or BRET; single virus FRET by acceptor photobleaching (TIRF microscopy) on fixed virions with IN-mTFP1 donor and IN-mVenus acceptor; FRET ratio = FD/FDA; virions produced in the presence of raltegravir (5-fold EC50)
[6] = molecular target: HIV-1 Pol polyprotein with a catalytically dead protease (sPol-PR_(D25N)) (HIV-1 (IIIB)); assay: AlphaScreen or HTRF; 33 nM GST-sPol-PR_(D25N) and 33 nM His-MBP-sPol-PR_(D25N) kept constant, CX05045 (raltegravir, DMSO as controls) titrated 1:10 from 100 uM; 25 mM Tris/HCl pH 7.5, 150 mM NaCl, 1 mM dithiothreitol, 1 mM MgCl2, 0.1% BSA, 0.1% Tween 20; overnight at 4°C, then glutathione donor and Ni-chelate acceptor beads 2 h at 23°C

Substance: HIV-1 integrase A128T (LEDGIN-resistant), fluorescently labelled (IN_(A128T)-mTFP1 and IN_(A128T)-mVenus) in virions (enzyme)
- mean FRET ratio (CX05045) [1]: 1.23
- mean FRET ratio (DMSO) [2]: 1.26

Substance: HIV-1 integrase, wild type, fluorescently labelled (IN-mTFP1 and IN-mVenus) in virions (from UniProt P12497 1148-1435) (enzyme)
- mean FRET ratio (CX05045) [3]: 1.43
- mean FRET ratio (DMSO) [4]: 1.25
- mean FRET ratio (raltegravir) [5]: 1.22

Substance: HIV-1 Pol polyprotein with a catalytically dead protease (sPol-PR_(D25N)) (natural protein)
- EC50 of CX05045 for the enhancement of Pol-Pol multimerization [6]: 8.7 nM
